The values below come from the supplement of paper PMC10567573.

The labels stand for the following.
B1: POLD4 (parent)
chain: ITDSYPVVKRREGPAGHSKGELAP
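Further: lentivirally expressed fusions sorted by FACS into six bins by GFP to DsRed ratio, PSI derived from sequencing read proportions per bin multiplied by bin number.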

In the series the parent is B1. Description: protein stability index of a GFP-peptide fusion (GPS, HEK-293T) (PSI 1-6); higher = more stable. The conditions noted are these: c terminus: a fixed tail appended.
Consider ITDSYPVVKRREGPAGHSKHELAP [G20H], for which the protein stability index was 2.22. Consider ITDSYPVVKRREGPAGHSKSELAP [G20S], for which the protein stability index stood at 2.58. As to ITDSYPVVKRREGPAGHSKCELAP [G20C], the protein stability index turned out to be 3.79. Turning to ITDSYPVVKRREGPAGHSKEELAP [G20E], the protein stability index came out at 2.93. Turning to ITDSYPVVKRREGPAGHSKPELAP [G20P], the protein stability index came to 4. Under ITDSYPVVKRREGPAGHSKTELAP [G20T] stands 2.67; under ITDSYPVVKRREGPAGHSKAELAP [G20A], 3.06. As to ITDSYPVVKRREGPAGHSKNELAP [G20N], the protein stability index is 4.09. As for ITDSYPVVKRREGPAGHSKYELAP [G20Y], the protein stability index was 2.92.

For the variant ITDSYPVVKRIEGPAGHSKGELAP [R11I], the protein stability index turned out to be 3.76.

Take ITDSYPVVKRTEGPAGHSKGELAP [R11T]: the protein stability index worked out at 3.33. Under ITDSYPVVKRAEGPAGHSKGELAP [R11A] stands 3.23; under ITDSYPVVKRWEGPAGHSKGELAP [R11W], 3.46. The same measure for ITDSYPVVKRMEGPAGHSKGELAP [R11M]: 2.87.

Turning to ITDSYPVVKRGEGPAGHSKGELAP [R11G], the protein stability index was found to be 3.79. The same measure for ITDSYPVVKRREGPAGHSGGELAP [K19G]: 3.89. Regarding ITDSYPVVKRREGPAGHSPGELAP [K19P], the protein stability index turned out to be 4.07. Turning to ITDSYPVVKRREGPAGHSSGELAP [K19S], the protein stability index worked out at 3.46. Consider ITDSYPVVKRREGPAGHSVGELAP [K19V], for which the protein stability index was found to be 3.37.

On to ITDSIPVVKRREGPAGHSKGELAP [Y5I], for which the protein stability index amounted to 4.84. The same measure for ITDSDPVVKRREGPAGHSKGELAP [Y5D]: 5.56; for ITDSYPVVKRREGWAGHSKGELAP [P14W]: 2.84; for ITDSYPVVKRREGMAGHSKGELAP [P14M]: 3.06. With ITDSYPVVKRREGQAGHSKGELAP [P14Q], the protein stability index came to 3.89.

Take ITDSYPVVKRREGVAGHSKGELAP [P14V]: the protein stability index was 1.93. In the case of ITDSYPVVKRREGFAGHSKGELAP [P14F], the protein stability index came to 3.28. As to ITDSYPVVKRREGAAGHSKGELAP [P14A], the protein stability index came to 3.82. Under ITDSYPVVKRREGEAGHSKGELAP [P14E] stands 4.1; under ITDYYPVVKRREGPAGHSKGELAP [S4Y], 2.57; under ITDDYPVVKRREGPAGHSKGELAP [S4D], 5.06. As for ITDTYPVVKRREGPAGHSKGELAP [S4T], the protein stability index came to 2.56.

As to ITDEYPVVKRREGPAGHSKGELAP [S4E], the protein stability index was found to be 4.58.

For the variant ITDRYPVVKRREGPAGHSKGELAP [S4R], the protein stability index worked out at 3.87. On to ITDSYPVVKNREGPAGHSKGELAP [R10N], for which the protein stability index is 3.92. Turning to ITDSYPVVKFREGPAGHSKGELAP [R10F], the protein stability index is 3.57. Take ITDSYPVVKLREGPAGHSKGELAP [R10L]: the protein stability index was found to be 3.64. For the variant ITDSYPVVKMREGPAGHSKGELAP [R10M], the protein stability index was 3.16. As to ITDSYPVVKEREGPAGHSKGELAP [R10E], the protein stability index was determined as 4.8. Consider ITDSYPVVKDREGPAGHSKGELAP [R10D], for which the protein stability index is 4.98. With ITDSYPVVKPREGPAGHSKGELAP [R10P], the protein stability index was found to be 4.68. Under ITDSYPVVKVREGPAGHSKGELAP [R10V] stands 3.94; under ITDSYPVVKRREGPAGHSKGELAA [P24A], 2.56; under ITDSYPVVKRREGPAGHSKGELAV [P24V], 2.19. Consider ITDSYPVVKRREGPAGHSKGELAC [P24C], for which the protein stability index was determined as 3.13.

ITDSYPVVKRREGPAGHSKGELAN [P24N]: the protein stability index came to 3.62.

As for ITDSYPVVKRREGPAGHSKGELAD [P24D], the protein stability index was 2.5.

Turning to ITDSYPVVIRREGPAGHSKGELAP [K9I], the protein stability index stood at 3.8.

Turning to ITDSYPVVYRREGPAGHSKGELAP [K9Y], the protein stability index was found to be 4.15. On to ITDSYPVVFRREGPAGHSKGELAP [K9F], for which the protein stability index is 3.1.

Consider ITDSYPVVARREGPAGHSKGELAP [K9A], for which the protein stability index was determined as 4.65. As for ITDSYPVVMRREGPAGHSKGELAP [K9M], the protein stability index was 4.06. As for ITDSYPVVTRREGPAGHSKGELAP [K9T], the protein stability index came out at 4.71. The same measure for ITDSYPVVPRREGPAGHSKGELAP [K9P]: 4.26; for ITDSYPVVHRREGPAGHSKGELAP [K9H]: 2.72. Regarding ITDSYPVVKRREGPANHSKGELAP [G16N], the protein stability index was found to be 2.82.

In the case of ITDSYPVVKRREGPACHSKGELAP [G16C], the protein stability index came out at 3.52.

Take ITDSYPVVKRREGPAIHSKGELAP [G16I]: the protein stability index was 2.72. ITDSYPVVKRREGPALHSKGELAP [G16L]: the protein stability index amounted to 2.49. Consider ITDSYPVVKRREGPAYHSKGELAP [G16Y], for which the protein stability index is 2.39. In the case of ITLSYPVVKRREGPAGHSKGELAP [D3L], the protein stability index was found to be 2.46. On to ITISYPVVKRREGPAGHSKGELAP [D3I], for which the protein stability index came out at 1.09. Regarding ITSSYPVVKRREGPAGHSKGELAP [D3S], the protein stability index came out at 2.68.

ITFSYPVVKRREGPAGHSKGELAP [D3F]: the protein stability index is 3.39. Under QTDSYPVVKRREGPAGHSKGELAP [I1Q] stands 4.43; under LTDSYPVVKRREGPAGHSKGELAP [I1L], 3.44. For the variant YTDSYPVVKRREGPAGHSKGELAP [I1Y], the protein stability index came out at 2.62. Consider RTDSYPVVKRREGPAGHSKGELAP [I1R], for which the protein stability index was 4.81. Consider DTDSYPVVKRREGPAGHSKGELAP [I1D], for which the protein stability index was determined as 5.18. The same measure for FTDSYPVVKRREGPAGHSKGELAP [I1F]: 1.59; for GTDSYPVVKRREGPAGHSKGELAP [I1G]: 4.68; for STDSYPVVKRREGPAGHSKGELAP [I1S]: 5.09.

With ITDSYPVVKRREGPAGHSKGCLAP [E21C], the protein stability index turned out to be 3.14. ITDSYPVVKRREGPAGHSKGILAP [E21I]: the protein stability index stood at 2.96. ITDSYPVVKRREGPAGHSKGMLAP [E21M]: the protein stability index is 2.6. Regarding ITDSYPVVKRREGPAGHSKGWLAP [E21W], the protein stability index worked out at 2.84. As for ITDSYPVVKRREGPAGHSKGSLAP [E21S], the protein stability index is 2.89. As for ITDSYPVVKRREGPAGHSKGLLAP [E21L], the protein stability index amounted to 2.85. Take ITDSYPVVKRREGPAGHSKGFLAP [E21F]: the protein stability index stood at 2.64.

Turning to ITDSYPVVKRREGPAGHSKGQLAP [E21Q], the protein stability index was 4.12.

For ITDSYPVVKRREGPRGHSKGELAP [A15R], the protein stability index amounted to 3.27. Under ITDSYPVVKRREGPLGHSKGELAP [A15L] stands 3.32; under ITDSYPVVKRREGPTGHSKGELAP [A15T], 2.22. Under ITDSYPVVKRREGPEGHSKGELAP [A15E] stands 3.33; under ITDSYPVVKRREGPHGHSKGELAP [A15H], 2.75. For ITDSYPVVKRREGPPGHSKGELAP [A15P], the protein stability index was found to be 3.03. With ITDSYPVVKRREGPFGHSKGELAP [A15F], the protein stability index came out at 2.41. Under ITDSYPVVKRREGPQGHSKGELAP [A15Q] stands 2.94; under ITDSYPVVKRREGPDGHSKGELAP [A15D], 2.81; under ITDSYPVVKRREGPYGHSKGELAP [A15Y], 3.75.

ITDSYPVVKRREGPSGHSKGELAP [A15S]: the protein stability index worked out at 2.8. In the case of ITDSYHVVKRREGPAGHSKGELAP [P6H], the protein stability index was 5. The same measure for ITDSYRVVKRREGPAGHSKGELAP [P6R]: 2.94; for ITDSYPVYKRREGPAGHSKGELAP [V8Y]: 4.34. For ITDSYPVRKRREGPAGHSKGELAP [V8R], the protein stability index is 2.88.
